Assay results: the supplement of paper PMC10126150
± gives the standard deviation of the averaged measurements.

Tested on: ATP
Experiment: switch fluorescence ratio, 500 uM ATP over buffer (Cy3 cluster intensity, sum of 5 cycles each) (fold (ratio)); higher = stronger signal-on switching upon ATP binding; sequences stand for … in TCGTCGGCAGCGTCAGATGTGTATAAGAGACAGTTTTTTTTTTTTTTTTTTTTTTTTT…TC
Conditions: aptamer strand: ATP DNA aptamer (quencher-CACCTGGGGGAGTATTGCGGAGGAAGG + anchor), 100 nM annealed; ATP concentration: 500 uM
Summary of the method: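 Clusters carrying Cy3-labelled switching strands on a modified Illumina MiSeq flow-cell were annealed to 100 nM quencher-labelled ATP aptamer and imaged in selection buffer. They were imaged again after 15 min with 500 uM ATP at 22 °C, over five buffer/ATP cycles with NaOH stripping and re-annealing in between. For each cluster, the fluorescence ratio is the summed Cy3 intensity of the target cycles divided by that of the buffer cycles, averaged per switch-domain sequence. Clusters outside 100-1000 RFU were left out.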
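Note: ATP exposure 15 min at 22 °C before imaging.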

Sequence	switch fluorescence ratio
TGGTAAACGC	1.03 ± 0.05
GCGGGGATGC	1.03 ± 0.075
GAGGTTTCTT	1.01 ± 0.0048
AAGGCTTAAT	1.006 ± 0.0063
CGACAGGTTC	1.0621 ± 0.00069
GAGTACCTGG	1.01 ± 0.04
TTCGAGCTTC	1.07 ± 0.034
GTATTAGGGC	1.02 ± 0.0034
AGGTAAATGT	0.972 ± 0.023
AGGGCGTCGA	0.986 ± 0.034
TGGGATCGTT	0.98 ± 0.015
AATACATTCT	1.05 ± 0.011
ATCAATATAG	1.03 ± 0.018
GATTGAGGAG	0.981 ± 0.03
GGGTACATTT	0.987 ± 0.016
TGAAGGGGAT	1.02 ± 0.045
TCGGGGTTCT	1.01 ± 0.0064
TAATACCGTA	1.06 ± 0.084
TCTGGCGGC	0.981 ± 0.039
ACGGAAGGGC	1.11 ± 0.059
ATAGATAACG	1 ± 0.035
AATCATAGTT	1 ± 0.014
AGTCTAAATT	1.02 ± 0.011
AACTCAGGCG	1.039 ± 0.0066
ACGCGGTA	1.02 ± 0.058
AATTTAGCCG	0.977 ± 0.077

Sequence	switch fluorescence ratio
GGGGCCGTAA	0.992 ± 0.025
GGGGGGTGAC	1 ± 0.035
CCAGAAGGGG	1.52 ± 0.89
GCAGGGTGGC	1 ± 0.062
AAGAAGGGAA	1.004 ± 0.0068
AGGAGCTCGG	0.994 ± 0.013
ACCTTGTGCA	1.02 ± 0.04
TGCGCAAGGG	1.27 ± 0.31
TTGCTGTACT	1.02 ± 0.021
ATGGGTTATG	0.999 ± 0.016
TGGGGAACAA	1 ± 0.055
AGATTGGAAT	0.9968 ± 0.0058
GGGTAGGGCG	1.03 ± 0.14
ATAAGTTTTA	0.989 ± 0.0099
AGAGGTAAGC	1.02 ± 0.019
ATTGGAAAGG	0.985 ± 0.031
TATTGGGCGG	1.01 ± 0.045
TCTAATATAC	1.62 ± 0.028
AGGGAAAATG	0.967 ± 0.033
AGAAAGGTCT	1.026 ± 0.0085
AGACAATTCA	1.02 ± 0.019
AGGGTGAGGT	0.993 ± 0.022
CGTCCTAGGG	1.04 ± 0.043
AGTTACATTG	1.02 ± 0.041
AAATGGTAGG	0.996 ± 0.0086
TTAGCGGT	1.004 ± 0.0093

Sequence	switch fluorescence ratio
TGGATGGGCT	1.03 ± 0.037
GATCATCCTT	1.03 ± 0.0052
CTGAACTCGT	1.03 ± 0.018
AAACGATTTC	1.01 ± 0.019
TCCTAGGGGA	1.03 ± 0.0033
CCAGCTGGCT	1.026 ± 0.0063
TGCTTAGGAA	1.005 ± 0.0072
GGGGGGGAGC	1.01 ± 0.033
GGGCATCTAG	0.9863 ± 0.0013
GAGTAATGGT	1.04 ± 0.02
TTTTTTAGAG	1.004 ± 0.0068
TAGAACTTCG	1.014 ± 0.0077
TCAGTTTTGT	1.012 ± 0.0094
GGCGTTTTGG	0.982 ± 0.026
TTTACGACAC	2.02 ± 0.14
GGATCGCGAG	0.9797 ± 0.0074
CGGTAGTTGG	0.983 ± 0.019
AACGTTGTTG	0.976 ± 0.044
GAAAGTGGGA	0.988 ± 0.025
AATTGGTAGG	1 ± 0.072
AAGGTTCATA	1.01 ± 0.044
ACTGTTATGA	1.08 ± 0.058
TACGTTCTGA	0.999 ± 0.049
GTCGAGGGTC	0.944 ± 0.03
AGTGATAGAT	0.967 ± 0.023
GGGAAATCAG	0.9838 ± 0.0076

Sequence	switch fluorescence ratio
CGGGGGCGGC	0.974 ± 0.014
TGATGGTGGC	0.997 ± 0.017
TGATAGATGT	0.983 ± 0.026
TATTAAAGAC	1.04 ± 0.1
TGAGCCCGGG	0.97 ± 0.013
ATTGTTTTTA	0.998 ± 0.033
ACTTATCATT	1.04 ± 0.013
GGAGTTAGGG	0.977 ± 0.011
AATCGAGGGA	1 ± 0.027
CAAGGTAAAG	0.992 ± 0.013
GAGGAAAATA	0.981 ± 0.011
TAATACTGTT	0.888 ± 0.031
GGAGTCTAGG	0.994 ± 0.031
TTTAGCTGGG	1.01 ± 0.019
TTGGTTAAAT	1.01 ± 0.026
GAAGGGTAGC	0.996 ± 0.037
ACATTCTTTA	0.9628 ± 0.0042
ATTGAGTTCT	1 ± 0.012
GAGGTCATTA	0.9895 ± 0.0023
GGGCCTGGGT	1 ± 0.017
GGGGCCCGGC	0.904 ± 0.013
AGATTTGGTT	1.01 ± 0.032
ACGCGCGTGT	1.02 ± 0.017
GTAATGAGGT	1.01 ± 0.024
TACGCAGTAT	1.15 ± 0.061
TAGGTCGCCG	1 ± 0.044

Sequence	switch fluorescence ratio
ATTGGATAGG	1.01 ± 0.012
CGTCTAGTCG	1 ± 0.025
TTATGGATAA	1 ± 0.018
GGATAGGGTG	1.06 ± 0.076
CGCCGGGGGA	1.05 ± 0.036
ACAGGTAAGG	1.055 ± 0.0073
GCTAGTTTTT	1 ± 0.022
TAGTAGTGGG	1.01 ± 0.022
TAGGGGAGTT	0.978 ± 0.04
CGGGTAAGTT	1.09 ± 0.2
ACAGACTGAT	1.1 ± 0.076
AAGCCGGGGG	0.987 ± 0.019
CGAATTTTTT	0.9539 ± 0.0064
TCTAGGTTTT	1.005 ± 0.0047
AAAGGGTAGA	1.04 ± 0.019
TGTCACCAGT	1.02 ± 0.016
CATACCCAAA	1.05 ± 0.039
TTATTAAGAC	1 ± 0.032
TTTGAGATAC	1.39 ± 0.38
GGTGGTCGGT	0.9787 ± 0.0066
GCCTCGGGGC	1.02 ± 0.032
GTATTATAGG	1.006 ± 0.0042
AGACCGGGGA	0.989 ± 0.033
GGTATACGCA	1.14 ± 0.028
TGGTGGGGG	1.01 ± 0.051
TTTGTACATT	1.01 ± 0.011

Sequence	switch fluorescence ratio
GCTCAAATGG	1.04 ± 0.013
AGATACTTTC	1.03 ± 0.024
ATAGGAGAGC	1.044 ± 0.0021
ATTGATTTGC	0.997 ± 0.058
CGTGAGGCAG	0.978 ± 0.056
ATTGATTC	0.9868 ± 0.0031
AAAAGTTTGA	0.9656 ± 0.008
TCTCGTAAAT	1.034 ± 0.01
CAAGCCAGTT	0.9985 ± 0.0043
CCCGGCGAT	1.85 ± 1.2
GAGGTAAAAT	0.968 ± 0.016
CCAGGAGGGG	1.04 ± 0.012
TTAGTCGATA	0.9767 ± 0.0021
TGTTTTTAGG	0.989 ± 0.023
TCGGGGGATT	0.966 ± 0.028
GGGGATAATT	1.05 ± 0.025
TGAGGTTTGG	1.02 ± 0.028
CGTCGGGGG	0.982 ± 0.044
AGAGGGTCCA	0.962 ± 0.021
TTTAAACGGG	1 ± 0.011
AAACGCCGAA	0.986 ± 0.062
AGGGTATTGG	0.993 ± 0.028
TAGGGGATAC	1.06 ± 0.01
